In PMC9482650, “Quantitative fragmentomics allow affinity mapping of interactomes” (Nature Communications, 2022):

T1: PDZRN3_1, Q9UPQ7
T1 sequence (Q9UPQ7 244-349, limits assumed, looked up): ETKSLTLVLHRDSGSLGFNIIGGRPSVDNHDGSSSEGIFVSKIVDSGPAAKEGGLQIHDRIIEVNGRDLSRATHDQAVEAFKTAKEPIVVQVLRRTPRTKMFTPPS

T2: MPP7, Q5T2T1
T2 sequence (Q5T2T1 134-230, limits assumed, looked up): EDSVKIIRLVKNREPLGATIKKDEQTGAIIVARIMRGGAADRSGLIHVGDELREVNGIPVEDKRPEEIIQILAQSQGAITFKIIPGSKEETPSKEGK

T3: NHERF3_4, Q5T2W1
T3 sequence (Q5T2W1 373-468, limits assumed, looked up): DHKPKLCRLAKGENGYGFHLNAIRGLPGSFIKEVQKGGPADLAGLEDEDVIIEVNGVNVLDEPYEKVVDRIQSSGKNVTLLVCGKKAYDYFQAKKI

T4: PARD3B_1, Q8TEW8
T4 sequence (Q8TEW8 196-299, limits assumed, looked up): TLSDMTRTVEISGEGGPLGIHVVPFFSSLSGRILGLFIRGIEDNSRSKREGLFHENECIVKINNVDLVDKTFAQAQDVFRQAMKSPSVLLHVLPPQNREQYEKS

T5: DLG3_2, Q92796
T5 sequence (Q92796 221-321, limits assumed, looked up): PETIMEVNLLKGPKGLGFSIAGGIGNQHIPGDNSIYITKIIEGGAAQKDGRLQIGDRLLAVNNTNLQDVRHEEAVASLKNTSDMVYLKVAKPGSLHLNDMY

T6: SNTG2, Q9NY99
T6 sequence (Q9NY99 68-166, limits assumed, looked up): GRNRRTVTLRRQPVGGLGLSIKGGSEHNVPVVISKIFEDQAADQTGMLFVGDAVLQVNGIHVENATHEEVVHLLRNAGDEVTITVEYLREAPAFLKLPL

T7: RAPGEF6, Q8TEU7
T7 sequence (Q8TEU7 525-625, limits assumed, looked up): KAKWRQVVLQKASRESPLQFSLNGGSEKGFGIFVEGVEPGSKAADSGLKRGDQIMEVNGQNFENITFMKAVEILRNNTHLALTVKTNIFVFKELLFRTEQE

T8: HTRA4, P83105
T8 sequence (P83105 378-476, limits assumed, looked up): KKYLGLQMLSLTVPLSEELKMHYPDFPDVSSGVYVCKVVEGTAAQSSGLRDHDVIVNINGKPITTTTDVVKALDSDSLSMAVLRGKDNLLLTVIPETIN

T9: LIN7A, O14910
T9 sequence (O14910 103-200, limits assumed, looked up): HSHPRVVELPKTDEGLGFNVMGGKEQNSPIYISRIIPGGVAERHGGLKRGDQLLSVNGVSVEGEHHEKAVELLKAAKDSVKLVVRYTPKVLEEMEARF

T10: SNTG1, Q9NSN8
T10 sequence (Q9NSN8 52-150, limits assumed, looked up): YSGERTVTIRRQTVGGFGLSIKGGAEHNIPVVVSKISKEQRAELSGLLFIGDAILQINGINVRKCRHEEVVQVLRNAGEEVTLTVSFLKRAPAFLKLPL

B1: ARHGEF7, Q14155;Q14155-1 (peptide)
chain: NDPAWDETNL
B2: HPV35-E6, P27228 (peptide)
chain: SKPTRRETEV

target: Inadl_9, Q8NI35; assay: holdup assay; parameters: key: below the threshold = too weak to quantify, mostly under pKd 3.1 to 4; settings: plain residues with an end cap or a label only (N-terminal biotin on a linker: ttds)
Sequence (Q8NI35 1530-1615): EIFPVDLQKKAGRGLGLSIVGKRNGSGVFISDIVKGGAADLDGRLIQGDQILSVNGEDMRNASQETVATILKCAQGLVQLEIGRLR

| Binder | pKd |
| --- | --- |
| B1 | below the threshold |
| B2 | below the threshold |

target: T1, PDZRN3_1, Q9UPQ7; assay: holdup assay; parameters: key: below the threshold = too weak to quantify, mostly under pKd 3.1 to 4; settings: plain residues with an end cap or a label only (N-terminal biotin on a linker: ttds)

| Binder | pKd |
| --- | --- |
| B1 | 3.92 |
| B2 | 4.89 |

target: T2, MPP7, Q5T2T1; assay: holdup assay; parameters: key: below the threshold = too weak to quantify, mostly under pKd 3.1 to 4; settings: plain residues with an end cap or a label only (N-terminal biotin on a linker: ttds)

| Binder | pKd |
| --- | --- |
| B1 | below the threshold |
| B2 | below the threshold |

target: MAST1, Q9Y2H9; assay: holdup assay; parameters: key: below the threshold = too weak to quantify, mostly under pKd 3.1 to 4; settings: plain residues with an end cap or a label only (N-terminal biotin on a linker: ttds)
Sequence (Q9Y2H9 962-1065): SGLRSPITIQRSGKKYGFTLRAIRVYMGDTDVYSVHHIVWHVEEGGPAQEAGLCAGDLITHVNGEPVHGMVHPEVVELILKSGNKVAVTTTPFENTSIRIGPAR

| Binder | pKd |
| --- | --- |
| B1 | 4.92 |
| B2 | below the threshold |

target: T3, NHERF3_4, Q5T2W1; assay: holdup assay; parameters: key: below the threshold = too weak to quantify, mostly under pKd 3.1 to 4; settings: plain residues with an end cap or a label only (N-terminal biotin on a linker: ttds)

| Binder | pKd |
| --- | --- |
| B1 | below the threshold |
| B2 | below the threshold |

target: T4, PARD3B_1, Q8TEW8; assay: holdup assay; parameters: key: below the threshold = too weak to quantify, mostly under pKd 3.1 to 4; settings: plain residues with an end cap or a label only (N-terminal biotin on a linker: ttds)

| Binder | pKd |
| --- | --- |
| B2 | below the threshold |

target: Inadl_3, Q8NI35; assay: holdup assay; parameters: key: below the threshold = too weak to quantify, mostly under pKd 3.1 to 4; settings: plain residues with an end cap or a label only (N-terminal biotin on a linker: ttds)
Sequence (Q8NI35 359-469): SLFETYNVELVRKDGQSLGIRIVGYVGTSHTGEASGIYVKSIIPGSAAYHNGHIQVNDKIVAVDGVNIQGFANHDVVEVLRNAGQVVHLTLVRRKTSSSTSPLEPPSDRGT

| Binder | pKd |
| --- | --- |
| B1 | below the threshold |
| B2 | below the threshold |

target: NHERF2_2, Q15599; assay: holdup assay; parameters: key: below the threshold = too weak to quantify, mostly under pKd 3.1 to 4; settings: plain residues with an end cap or a label only (N-terminal biotin on a linker: ttds)
Sequence (Q15599 142-238): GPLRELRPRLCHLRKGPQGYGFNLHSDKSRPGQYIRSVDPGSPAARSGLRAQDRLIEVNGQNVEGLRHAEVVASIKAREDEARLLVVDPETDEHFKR

| Binder | pKd |
| --- | --- |
| B1 | 4.81 |
| B2 | below the threshold |

target: T5, DLG3_2, Q92796; assay: holdup assay; parameters: key: below the threshold = too weak to quantify, mostly under pKd 3.1 to 4; settings: plain residues with an end cap or a label only (N-terminal biotin on a linker: ttds)

| Binder | pKd |
| --- | --- |
| B1 | below the threshold |
| B2 | 5.49 |

target: LNX1_1, Q8TBB1; assay: holdup assay; parameters: key: below the threshold = too weak to quantify, mostly under pKd 3.1 to 4; settings: plain residues with an end cap or a label only (N-terminal biotin on a linker: ttds)
Sequence (Q8TBB1 261-371): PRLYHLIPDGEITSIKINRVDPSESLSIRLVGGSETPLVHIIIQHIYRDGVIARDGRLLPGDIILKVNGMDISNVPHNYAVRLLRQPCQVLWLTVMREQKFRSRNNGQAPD

| Binder | pKd |
| --- | --- |
| B1 | below the threshold |
| B2 | below the threshold |

target: FRMPD4, Q14CM0; assay: holdup assay; parameters: key: below the threshold = too weak to quantify, mostly under pKd 3.1 to 4; settings: plain residues with an end cap or a label only (N-terminal biotin on a linker: ttds)
Sequence (Q14CM0 67-160): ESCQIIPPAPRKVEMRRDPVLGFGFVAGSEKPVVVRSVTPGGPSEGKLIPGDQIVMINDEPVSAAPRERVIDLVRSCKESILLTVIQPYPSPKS

| Binder | pKd |
| --- | --- |
| B1 | 4.66 |
| B2 | below the threshold |

target: DLG4_1, P78352; assay: holdup assay; parameters: key: below the threshold = too weak to quantify, mostly under pKd 3.1 to 4; settings: plain residues with an end cap or a label only (N-terminal biotin on a linker: ttds)
Sequence (P78352 62-152): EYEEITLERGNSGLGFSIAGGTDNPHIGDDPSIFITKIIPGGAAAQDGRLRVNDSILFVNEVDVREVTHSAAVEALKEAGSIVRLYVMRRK

| Binder | pKd |
| --- | --- |
| B1 | below the threshold |
| B2 | 5.09 |

target: MAGI2_3, Q86UL8; assay: holdup assay; parameters: key: below the threshold = too weak to quantify, mostly under pKd 3.1 to 4; settings: plain residues with an end cap or a label only (N-terminal biotin on a linker: ttds)
Sequence (Q86UL8 600-682): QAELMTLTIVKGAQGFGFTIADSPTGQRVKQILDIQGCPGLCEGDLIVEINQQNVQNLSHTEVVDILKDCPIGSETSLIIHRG

| Binder | pKd |
| --- | --- |
| B1 | below the threshold |
| B2 | below the threshold |

target: T6, SNTG2, Q9NY99; assay: holdup assay; parameters: key: below the threshold = too weak to quantify, mostly under pKd 3.1 to 4; settings: plain residues with an end cap or a label only (N-terminal biotin on a linker: ttds)

| Binder | pKd |
| --- | --- |
| B1 | 4.22 |
| B2 | 3.95 |

target: SCRIB_3, Q14160; assay: holdup assay; parameters: key: below the threshold = too weak to quantify, mostly under pKd 3.1 to 4; settings: plain residues with an end cap or a label only (N-terminal biotin on a linker: ttds)
Sequence (Q14160 999-1103): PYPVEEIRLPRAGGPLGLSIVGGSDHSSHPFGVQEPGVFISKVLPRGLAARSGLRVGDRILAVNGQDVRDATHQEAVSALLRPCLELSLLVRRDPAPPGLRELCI

| Binder | pKd |
| --- | --- |
| B1 | 5.08 |
| B2 | 4.89 |

target: T7, RAPGEF6, Q8TEU7; assay: holdup assay; parameters: key: below the threshold = too weak to quantify, mostly under pKd 3.1 to 4; settings: plain residues with an end cap or a label only (N-terminal biotin on a linker: ttds)

| Binder | pKd |
| --- | --- |
| B1 | below the threshold |
| B2 | below the threshold |

target: NHERF4_2, Q86UT5; assay: holdup assay; parameters: key: below the threshold = too weak to quantify, mostly under pKd 3.1 to 4; settings: plain residues with an end cap or a label only (N-terminal biotin on a linker: ttds)
Sequence (Q86UT5 220-308): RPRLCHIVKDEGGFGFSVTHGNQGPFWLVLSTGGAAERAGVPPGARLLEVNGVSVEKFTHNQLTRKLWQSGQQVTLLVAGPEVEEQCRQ

| Binder | pKd |
| --- | --- |
| B1 | below the threshold |
| B2 | below the threshold |

target: LIMK2, P53671; assay: holdup assay; parameters: key: below the threshold = too weak to quantify, mostly under pKd 3.1 to 4; settings: plain residues with an end cap or a label only (N-terminal biotin on a linker: ttds)
Sequence (P53671 143-248): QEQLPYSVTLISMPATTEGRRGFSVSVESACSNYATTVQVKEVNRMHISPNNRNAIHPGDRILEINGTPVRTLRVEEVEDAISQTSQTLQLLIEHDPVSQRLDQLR

| Binder | pKd |
| --- | --- |
| B1 | below the threshold |
| B2 | below the threshold |

target: T8, HTRA4, P83105; assay: holdup assay; parameters: key: below the threshold = too weak to quantify, mostly under pKd 3.1 to 4; settings: plain residues with an end cap or a label only (N-terminal biotin on a linker: ttds)

| Binder | pKd |
| --- | --- |
| B1 | below the threshold |
| B2 | below the threshold |

target: T9, LIN7A, O14910; assay: holdup assay; parameters: key: below the threshold = too weak to quantify, mostly under pKd 3.1 to 4; settings: plain residues with an end cap or a label only (N-terminal biotin on a linker: ttds)

| Binder | pKd |
| --- | --- |
| B1 | below the threshold |
| B2 | below the threshold |

target: MAGI2_5, Q86UL8; assay: holdup assay; parameters: key: below the threshold = too weak to quantify, mostly under pKd 3.1 to 4; settings: plain residues with an end cap or a label only (N-terminal biotin on a linker: ttds)
Sequence (Q86UL8 915-1017): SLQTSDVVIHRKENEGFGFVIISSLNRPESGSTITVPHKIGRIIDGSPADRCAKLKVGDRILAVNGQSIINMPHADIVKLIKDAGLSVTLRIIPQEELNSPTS

| Binder | pKd |
| --- | --- |
| B1 | below the threshold |
| B2 | 4.18 |

target: PICK1, Q9NRD5; assay: holdup assay; parameters: key: below the threshold = too weak to quantify, mostly under pKd 3.1 to 4; settings: plain residues with an end cap or a label only (N-terminal biotin on a linker: ttds)
Sequence (Q9NRD5 17-115): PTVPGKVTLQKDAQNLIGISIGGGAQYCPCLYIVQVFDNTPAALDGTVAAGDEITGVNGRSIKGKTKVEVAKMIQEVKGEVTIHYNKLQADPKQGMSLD

| Binder | pKd |
| --- | --- |
| B1 | below the threshold |
| B2 | below the threshold |

target: T10, SNTG1, Q9NSN8; assay: holdup assay; parameters: key: below the threshold = too weak to quantify, mostly under pKd 3.1 to 4; settings: plain residues with an end cap or a label only (N-terminal biotin on a linker: ttds)

| Binder | pKd |
| --- | --- |
| B1 | 4.26 |
| B2 | 4.31 |

target: HTRA1, Q92743; assay: holdup assay; parameters: key: below the threshold = too weak to quantify, mostly under pKd 3.1 to 4; settings: plain residues with an end cap or a label only (N-terminal biotin on a linker: ttds)
Sequence (Q92743 360-477): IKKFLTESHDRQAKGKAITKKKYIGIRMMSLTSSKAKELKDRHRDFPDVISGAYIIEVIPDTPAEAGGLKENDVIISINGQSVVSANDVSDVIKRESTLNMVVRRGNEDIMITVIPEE

| Binder | pKd |
| --- | --- |
| B1 | 3.92 |
| B2 | below the threshold |

target: GRIP2_7, Q9C0E4; assay: holdup assay; parameters: key: below the threshold = too weak to quantify, mostly under pKd 3.1 to 4; settings: plain residues with an end cap or a label only (N-terminal biotin on a linker: ttds)
Sequence (Q9C0E4 934-1023): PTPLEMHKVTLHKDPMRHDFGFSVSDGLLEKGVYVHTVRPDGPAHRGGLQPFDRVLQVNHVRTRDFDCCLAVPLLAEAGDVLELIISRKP

| Binder | pKd |
| --- | --- |
| B1 | below the threshold |
| B2 | below the threshold |

target: MAGI1_2, Q96QZ7; assay: holdup assay; parameters: key: below the threshold = too weak to quantify, mostly under pKd 3.1 to 4; settings: plain residues with an end cap or a label only (N-terminal biotin on a linker: ttds)
Sequence (Q96QZ7 456-580): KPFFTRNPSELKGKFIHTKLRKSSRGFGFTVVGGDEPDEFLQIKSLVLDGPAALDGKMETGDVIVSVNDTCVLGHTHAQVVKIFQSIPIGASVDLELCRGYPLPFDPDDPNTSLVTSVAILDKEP

| Binder | pKd |
| --- | --- |
| B1 | below the threshold |
| B2 | 5.13 |

target: IL16_3, Q14005; assay: holdup assay; parameters: key: below the threshold = too weak to quantify, mostly under pKd 3.1 to 4; settings: plain residues with an end cap or a label only (N-terminal biotin on a linker: ttds)
Sequence (Q14005 1107-1207): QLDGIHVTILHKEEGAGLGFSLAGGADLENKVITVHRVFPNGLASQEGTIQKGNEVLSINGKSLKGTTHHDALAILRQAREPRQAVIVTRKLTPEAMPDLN

| Binder | pKd |
| --- | --- |
| B1 | below the threshold |
| B2 | below the threshold |
